Blank lines part the entries; values can stand above or below the binder they belong to.
What was measured:
[1] = target: T1, D607A peptide (HER2 603-622 with D607A) (human); assay: SPR Biacore, mAb on chip, peptide analyte, 1:1 fit;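 further: where kon or koff could not be resolved by kinetic fitting, Kd comes instead from steady-state equilibrium analysis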
T1 peptide: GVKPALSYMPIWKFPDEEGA

[2] = target: T2, G603A peptide (HER2 603-622 with G603A) (human); assay: SPR Biacore, mAb on chip, peptide analyte, 1:1 fit;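 further: where kon or koff could not be resolved by kinetic fitting, Kd comes instead from steady-state equilibrium analysis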
T2 peptide: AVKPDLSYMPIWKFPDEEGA

[3] = target: T3, P606A peptide (HER2 603-622 with P606A) (human); assay: SPR Biacore, mAb on chip, peptide analyte, 1:1 fit;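 further: where kon or koff could not be resolved by kinetic fitting, Kd comes instead from steady-state equilibrium analysis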
T3 peptide: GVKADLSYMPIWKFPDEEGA

[4] = target: T4, I613A peptide (HER2 603-622 with I613A) (human); assay: SPR Biacore, mAb on chip, peptide analyte, 1:1 fit;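 further: where kon or koff could not be resolved by kinetic fitting, Kd comes instead from steady-state equilibrium analysis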
T4 construct: also called 1613A
T4 peptide: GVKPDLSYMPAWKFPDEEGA

[5] = target: T5, D618A peptide (HER2 603-622 with D618A) (human); assay: SPR Biacore, mAb on chip, peptide analyte, 1:1 fit
T5 peptide: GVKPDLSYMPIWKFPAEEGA

[6] = target: T6, E620A peptide (HER2 603-622 with E620A) (human); assay: SPR Biacore, mAb on chip, peptide analyte, 1:1 fit
T6 peptide: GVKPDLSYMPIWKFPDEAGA

[7] = target: T7, P617A peptide (HER2 603-622 with P617A) (human); assay: SPR Biacore, mAb on chip, peptide analyte, 1:1 fit
T7 peptide: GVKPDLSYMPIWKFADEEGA

[8] = target: T8, S609A peptide (HER2 603-622 with S609A) (human); assay: SPR Biacore, mAb on chip, peptide analyte, 1:1 fit
T8 peptide: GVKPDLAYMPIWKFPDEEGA

[9] = target: T9, F616A peptide (HER2 603-622 with F616A) (human); assay: SPR Biacore, mAb on chip, peptide analyte, 1:1 fit
T9 peptide: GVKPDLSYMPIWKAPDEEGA

[10] = target: T10, V604A peptide (HER2 603-622 with V604A) (human); assay: SPR Biacore, mAb on chip, peptide analyte, 1:1 fit
T10 peptide: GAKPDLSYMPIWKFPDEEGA

[11] = target: T11, E619A peptide (HER2 603-622 with E619A) (human); assay: SPR Biacore, mAb on chip, peptide analyte, 1:1 fit
T11 peptide: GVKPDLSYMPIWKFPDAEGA

[12] = target: T12, HER2 peptide p603-622 (amino acids 603 to 622 of human HER2) (human); assay: SPR Biacore, mAb on chip, peptide analyte, 1:1 fit
T12 construct: Synthetic peptide; also called wild-type HER2 peptide
T12 peptide: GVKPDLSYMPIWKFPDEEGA

[13] = target: T13, L608A peptide (HER2 603-622 with L608A) (human); assay: SPR Biacore, mAb on chip, peptide analyte, 1:1 fit
T13 peptide: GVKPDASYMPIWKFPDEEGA

[14] = target: T14, K615A peptide (HER2 603-622 with K615A) (human); assay: SPR Biacore, mAb on chip, peptide analyte, 1:1 fit
T14 peptide: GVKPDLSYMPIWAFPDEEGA

[15] = target: T15, A622G peptide (HER2 603-622 with A622G) (human); assay: SPR Biacore, mAb on chip, peptide analyte, 1:1 fit
T15 peptide: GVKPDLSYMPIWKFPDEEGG

[16] = target: T16, Y610A peptide (HER2 603-622 with Y610A) (human); assay: SPR Biacore, mAb on chip, peptide analyte, 1:1 fit
T16 peptide: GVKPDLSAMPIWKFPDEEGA

[17] = target: T17, P612A peptide (HER2 603-622 with P612A) (human); assay: SPR Biacore, mAb on chip, peptide analyte, 1:1 fit
T17 peptide: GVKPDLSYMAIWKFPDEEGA

[18] = target: T18, G621A peptide (HER2 603-622 with G621A) (human); assay: SPR Biacore, mAb on chip, peptide analyte, 1:1 fit
T18 peptide: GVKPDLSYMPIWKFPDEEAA

[19] = target: T19, M611A peptide (HER2 603-622 with M611A) (human); assay: SPR Biacore, mAb on chip, peptide analyte, 1:1 fit
T19 peptide: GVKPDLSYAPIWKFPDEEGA

[20] = target: T20, HER2 peptide 613-632 (amino acids 613 to 632 of human HER2) (human); assay: ELISA, peptide coated at 10 µg/ml, antibody 10 µg/ml
T20 construct: Synthetic peptide
T20 peptide: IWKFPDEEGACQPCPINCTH

[21] = target: T21, HER2 peptide p614-621 (human); assay: SPR Biacore, mAb on chip, peptide analyte, equilibrium analysis
T21 peptide: WKFPDEEG

[22] = target: T22, HER2 peptide p613-622 (human); assay: as above
T22 peptide: IWKFPDEEGA

Kd [1]: 7.06 nM | koff [1]: 0.00052 s⁻¹ | kon [1]: 73600 M⁻¹ s⁻¹ | Kd [2]: 5.87 nM | koff [2]: 0.00043 s⁻¹ | kon [2]: 73300 M⁻¹ s⁻¹ | Kd [3]: 5.34 nM | koff [3]: 0.000393 s⁻¹ | kon [3]: 73600 M⁻¹ s⁻¹ | Kd [4]: 93.9 nM | koff [4]: 0.00828 s⁻¹ | kon [4]: 88400 M⁻¹ s⁻¹ | Kd [5]: 5.8 nM | koff [5]: 0.000432 s⁻¹ | kon [5]: 74500 M⁻¹ s⁻¹ | Kd [6]: 7.98 nM | koff [6]: 0.000455 s⁻¹ | kon [6]: 57100 M⁻¹ s⁻¹ | Kd [7]: 207 nM | koff [7]: 0.00914 s⁻¹ | kon [7]: 44100 M⁻¹ s⁻¹ | Kd [8]: 6.51 nM | koff [8]: 0.000394 s⁻¹ | kon [8]: 60600 M⁻¹ s⁻¹ | Kd [9]: 204 nM | koff [9]: 0.0108 s⁻¹ | kon [9]: 52800 M⁻¹ s⁻¹ | Kd [10]: 6.54 nM | koff [10]: 0.000399 s⁻¹ | kon [10]: 61000 M⁻¹ s⁻¹ | Kd [11]: 6.29 nM | koff [11]: 0.000465 s⁻¹ | kon [11]: 73900 M⁻¹ s⁻¹ | Kd [12]: 5.8 nM | koff [12]: 0.00037 s⁻¹ | kon [12]: 63900 M⁻¹ s⁻¹ | Kd [13]: 8.79 nM | koff [13]: 0.000431 s⁻¹ | kon [13]: 49100 M⁻¹ s⁻¹ | Kd [14]: 336 nM | koff [14]: 0.00963 s⁻¹ | kon [14]: 28700 M⁻¹ s⁻¹ | Kd [15]: 6.87 nM | koff [15]: 0.000453 s⁻¹ | kon [15]: 65900 M⁻¹ s⁻¹ | Kd [16]: 7.9 nM | koff [16]: 0.000451 s⁻¹ | kon [16]: 57100 M⁻¹ s⁻¹ | Kd [17]: 9.54 nM | koff [17]: 0.000609 s⁻¹ | kon [17]: 63800 M⁻¹ s⁻¹ | Kd [18]: 6.91 nM | koff [18]: 0.000399 s⁻¹ | kon [18]: 57800 M⁻¹ s⁻¹ | Kd [19]: 7.45 nM | koff [19]: 0.000445 s⁻¹ | kon [19]: 59700 M⁻¹ s⁻¹ | binding result [20]: binds
B1: H2Mab-250 antibody (antibody, V domains shown)
VH: EVQLVESGGGLVQPGGSLKLSCAASGFTFSNYGMSWVRQTPDRRLELVATINNNGGGTYYPDSVKGRFTISRDNAKNTLYLQMSSLKSEDTAMYYCTSPGLLWDAWGAGTTVTVSS
VL: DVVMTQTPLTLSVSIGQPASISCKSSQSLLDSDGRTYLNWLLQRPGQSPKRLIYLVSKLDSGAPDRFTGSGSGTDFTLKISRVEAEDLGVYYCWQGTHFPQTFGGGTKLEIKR
notes: Mouse monoclonal from a hybridoma (immunogen HER2ec made in LN229 cells); also called antibody of the present invention

binding result [20]: binds | Kd [21]: 229 µM | Kd [22]: 127 µM
B2: H2Mab-214 antibody (antibody, V domains shown)
VH: QVTLKESGPGILQPSQTLSLTCSFSGFSLSTSGMGVSWIRQPSGKGLEWLAHIFWDDDKRYNPSLKSRLTISKDTSRNKVFLKITSVDTADTATYYCARRVVATDWYFDVWGAGTTVTVSS
VL: DIVLTQSPASLAVSLGQRATISCRASESVEYYGTTLMQWYQQKPGQPPKLLIYAASKVESGVPARFSGSGSGTDFSLNIHPVEEDDVAMYFCQQSRKVPLTFGAGTKLELKR
notes: as for B1
